The values below are quoted from earlier work in article PMC3505813.

Data set [1] addresses aminopeptidase N (APN) (Homo sapiens) (UniProt P15144).
The target of a further data set is VCAM-1 (Homo sapiens) (UniProt P19320).
Sequence of UniProt P19320 (P19320 25-698): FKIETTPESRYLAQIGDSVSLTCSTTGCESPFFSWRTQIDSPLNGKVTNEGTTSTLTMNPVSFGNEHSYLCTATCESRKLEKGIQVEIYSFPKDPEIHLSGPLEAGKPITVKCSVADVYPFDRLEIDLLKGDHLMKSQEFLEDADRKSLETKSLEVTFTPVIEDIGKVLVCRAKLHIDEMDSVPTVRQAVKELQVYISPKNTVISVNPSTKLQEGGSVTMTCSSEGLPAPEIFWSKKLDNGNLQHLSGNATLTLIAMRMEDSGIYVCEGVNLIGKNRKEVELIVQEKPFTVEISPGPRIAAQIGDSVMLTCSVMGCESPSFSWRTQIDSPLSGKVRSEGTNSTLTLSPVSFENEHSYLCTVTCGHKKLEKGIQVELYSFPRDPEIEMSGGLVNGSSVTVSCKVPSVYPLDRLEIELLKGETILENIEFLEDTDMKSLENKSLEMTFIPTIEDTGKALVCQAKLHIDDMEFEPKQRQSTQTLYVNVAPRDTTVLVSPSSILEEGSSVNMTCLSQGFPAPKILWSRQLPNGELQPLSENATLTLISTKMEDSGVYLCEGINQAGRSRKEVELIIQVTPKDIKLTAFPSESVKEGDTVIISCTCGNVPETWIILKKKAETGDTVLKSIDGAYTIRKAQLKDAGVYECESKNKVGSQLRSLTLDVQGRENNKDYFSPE

Sequence of UniProt P15144 (P15144 2-967): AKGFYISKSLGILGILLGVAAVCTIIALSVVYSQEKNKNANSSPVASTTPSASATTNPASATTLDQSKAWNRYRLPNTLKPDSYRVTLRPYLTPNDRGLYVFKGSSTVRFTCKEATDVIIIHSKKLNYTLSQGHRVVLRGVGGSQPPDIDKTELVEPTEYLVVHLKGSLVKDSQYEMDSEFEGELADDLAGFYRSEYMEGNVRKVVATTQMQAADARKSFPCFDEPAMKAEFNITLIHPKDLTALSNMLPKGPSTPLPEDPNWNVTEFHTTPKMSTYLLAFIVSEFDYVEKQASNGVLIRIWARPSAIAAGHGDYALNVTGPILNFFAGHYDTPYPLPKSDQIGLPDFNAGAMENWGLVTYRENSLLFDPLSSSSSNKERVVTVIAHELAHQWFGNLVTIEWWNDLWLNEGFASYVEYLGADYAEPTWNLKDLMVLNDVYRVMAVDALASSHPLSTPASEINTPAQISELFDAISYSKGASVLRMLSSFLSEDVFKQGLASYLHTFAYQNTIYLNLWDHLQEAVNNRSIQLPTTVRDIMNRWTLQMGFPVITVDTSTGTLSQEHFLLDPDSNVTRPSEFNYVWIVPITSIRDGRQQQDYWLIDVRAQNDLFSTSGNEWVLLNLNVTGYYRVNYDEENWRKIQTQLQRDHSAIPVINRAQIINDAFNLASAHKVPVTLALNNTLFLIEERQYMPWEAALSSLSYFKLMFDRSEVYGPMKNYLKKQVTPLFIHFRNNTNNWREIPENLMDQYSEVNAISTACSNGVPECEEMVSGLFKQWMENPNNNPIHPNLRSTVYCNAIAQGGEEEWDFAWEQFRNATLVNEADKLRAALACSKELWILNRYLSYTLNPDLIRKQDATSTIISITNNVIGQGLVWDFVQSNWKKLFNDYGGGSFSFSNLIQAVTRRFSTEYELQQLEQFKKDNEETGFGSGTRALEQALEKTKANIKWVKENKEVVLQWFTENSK

As a reminder, the Kd is the constant that tells how readily two partners part at equilibrium. In the case of NGR peptide, in data set [1], the Kd is 300 µM.
With VHP peptide, the Kd with VCAM-1 (Homo sapiens) is 30 µM.
